Results reported in the supplement of paper PMC12042874.
± gives the uncertainty stated by the source.

assay: amyloid nucleation score (Sup35N fusion, yeast selection) (log enrichment); library NNK1; higher = more nucleation; inactive = no reads after selection
Summary of the method: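 Peptides of 20 random codons, each fused to Sup35N, were expressed in psi-negative yeast. Cells were induced with 100 μM copper sulfate for 24 hours and grown 7 days at 30°C on medium lacking adenine and uracil, and plasmid inserts before and after selection were Illumina-sequenced. Nucleation scores are DiMSum log enrichments of output over input reads, centred on the mode score of non-aggregating sequences, and sequences under 100 input reads were excluded.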

Point of comparison: FEVNFPAYIYWSDCPVVGVS, amyloid nucleation score -0.127 ± 0.38. Against it:
- EMYKTRAFLSRKYMRHLLFN — within error, -0.316 ± 0.39
- ENHAKLHDICGASGLSREGG — within error, 0.592 ± 0.49
- ENRFARCYRVV — higher, 2.1 ± 0.1
- EPCVGNSNSCCVHC — within error, -0.072 ± 0.53
- EPGSLTESKSFYFLSCPTTR — within error, 0.808 ± 0.7
- EPYSLAIKGVHTLLRGSRKS — higher, 0.571 ± 0.29
- ERLGLRRFTIIISRQAQV — within error, 0.03 ± 0.34
- ERLHMLLAKCIHVGETRHLN — within error, 0.194 ± 0.66
- ERPTNSYGSREILNSYIINF — higher, 5.05 ± 0.084
- ERRDVRIYKSCGLGHVFYEG — higher, 4.91 ± 0.056
- ERTICSVITMNHGSSAYQGS — within error, -0.081 ± 0.47
- ERWIVVPDESTTRTTHRHIN — within error, 0.147 ± 1.6
- ESARCVRVTALSLWHRDQRS — within error, 1.02 ± 0.8
- ESHSSTKGSEWLRHSHSDGV — within error, 0.632 ± 0.39
- ESVLWVFYV — within error, 0.1 ± 0.41
- ETACLYLLFMSKACMRMMNS — within error, -0.219 ± 1.1
- ETALVVLTRVTEGCGRGQKT — within error, 0.668 ± 0.77
- EVCCNVKTL — within error, 0.431 ± 0.28
- EVCWNSCMVADSVSVISNPA — within error, -0.231 ± 0.27
- EVFRRSLGTTDAVGPKHDAQ — higher, 2.39 ± 0.17
- EVIIIGRSIIVLGMGGTKFW — higher, 1.72 ± 0.24
- EVRRFMTPGENESSREVAYF — within error, -0.02 ± 0.45
- EVRSQSNEYHLRNWCVYK — higher, 1.31 ± 0.23
- EVSLLSFLE — higher, 0.68 ± 0.39
- EYGDDVLWMFSTILCVRGEW — within error, -0.626 ± 0.47
- EYGNGSIKPVGRHWLEGYLH — within error, -0.701 ± 1
- FADERIGYSIK — within error, -0.336 ± 0.44
- FALGCF — within error, -0.079 ± 0.36
- FASDRLYWTWK — within error, 0.255 ± 0.53
- FASRVCMRSNQKIPAWQLWS — within error, -0.359 ± 0.29
- FAVLHNMMFMKYVRLFLVVT — within error, 0.247 ± 0.45
- FCELELMVHVVMPFKAVS — within error, 0.831 ± 0.77
- FCFMYDGHEAWSKAFSRRNV — within error, 0.196 ± 0.3
- FCHYTVLYDSPTLLVRVTWA — within error, -0.681 ± 0.85
- FCNLYGKQTYLSGFGIHCVV — within error, 0.127 ± 0.23
- FDDCFSLLIVPDSTVITKEQ — within error, 0.444 ± 0.4
- FDFACCTTGIGPFSCDLGSG — higher, 7.694 ± 0.052
- FDFCVEIWLRVFLNMWGRLR — higher, 0.689 ± 0.33
- FDGVRARDALFSGCL — within error, -0.705 ± 0.59
- FDKFKNSTVREFMWVEFSVG — within error, 0.745 ± 0.74
- FDKSRVDRLSDKGRCCCVL — higher, 1.36 ± 0.69
- FDLGHCIDSRRPGLCVMVLV — within error, 0.035 ± 0.34
- FDRMNCALGVPLWDALKDGS — higher, 3.4 ± 0.14
- FDYPDGDVVVNKFDSDVCYR — within error, 0.616 ± 0.84
- FEGALRLTIRSQKD — within error, 0.574 ± 0.57
- FEGNQDIYMVRTWKDKMRLV — within error, -0.107 ± 0.45
- FEHVSMWIVCFVKNLKYRIR — within error, -0.86 ± 0.86
- FELICNRNGNSPRYAFKKIP — higher, 0.976 ± 0.35
- FESRDVRSLWWDWSYSNKTV — within error, 0.191 ± 0.28
- FFELSVYH — within error, -0.174 ± 0.65
- FFFHSKDVYYGDFVHLSFAG — within error, -0.352 ± 1.2
- FFGCFGLYYAMAHLLYPSLE — higher, 1.48 ± 0.8
- FFLSLARVGVILHPMMVLTG — within error, -0.35 ± 0.64
- FFLWGRW — within error, -0.341 ± 0.43
- FFPTEYHALENLLHADVRVK — within error, -0.682 ± 0.36
- FFRRNHGYNI — within error, 0.092 ± 0.43
- FFRTLTWR — higher, 1.11 ± 0.55
- FFTRGIVMQRRQHWNGVYGS — within error, 0.737 ± 0.49
- FFVLFEVYMVWFTEGFARLA — within error, -0.733 ± 0.57
- FFVLKGECVGGLMPWTRVTA — within error, -0.24 ± 0.92
- FGESPH — within error, 0.494 ± 0.74
- FGKGNEGTIGNI — within error, -0.22 ± 0.76
- FGKSYRRFFARTKFGKAGGP — within error, -1.29 ± 1.8
- FGLCCRSRVFWRWLIKDWKD — within error, -0.566 ± 1.9
- FGMLIAVRSR — within error, 0.315 ± 0.29
- FGMWYSVRISTSLVYVMGVL — within error, -0.23 ± 0.28
- FGRSVLDRVKVMHVRVVVSV — within error, -0.372 ± 0.63
- FGSRVVGRCVETSHSILFVL — within error, 0.58 ± 1.1
- FGSSMLDFNLDFDKWCE — higher, 3.66 ± 0.076
- FGTFCMGRPYRYYGCNGGFR — higher, 0.674 ± 0.35
- FGTLGK — higher, 1.88 ± 0.38
- FGYNILYINQSTWLLNFCQV — higher, 6.56 ± 0.049
- FHCGMGIF — within error, -0.197 ± 0.32
- FHCTNSMVMLGRHATMLFFY — higher, 5.92 ± 0.095
- FHIQEANIFRE — within error, -0.17 ± 0.24
- FHLVRGCIFITCKYVGRGIV — higher, 1.32 ± 0.57
- FHMENALISLGCSSGLRQMA — higher, 0.803 ± 0.54
- FHMPYLCNAKWRECLGFSAH — within error, 0.279 ± 1.4
- FHTLDVCPGRVLNLYNVKVW — within error, -0.427 ± 1
- FHWVGVSYQLKMRRVKPKGV — within error, -0.441 ± 1.1
- FIFHSIGRSKISYKS — within error, -0.229 ± 0.59
- FIFPAHCSLRSIDFSQGYIR — within error, -0.321 ± 0.36
- FIIEQANGQGYNYLHI — within error, -0.481 ± 0.48
- FIIVEECNFRNRRLTYRLFI — higher, 0.816 ± 0.49
- FISCCARIFTTCGIAD — higher, 1.19 ± 0.14
- FIWDAWLGRKVSESHTVFHS — within error, 0.017 ± 0.21
- FIYFYGRYNSSGDPFQVFLG — within error, -0.578 ± 0.34
- FKLWQVFRKSSMFQRGWGIG — within error, 0.462 ± 0.78
- FKPEKRLGATG — within error, 0.694 ± 0.45
- FKRRLGCLKPRNY — within error, -0.333 ± 0.52
- FKRSLRCLYVVACNALYWDA — within error, -0.026 ± 0.51
- FKSTPVFKQWRNGGTDGLTG — within error, -0.958 ± 1.5
- FKSYWGSTWRSNSWVGDMRG — within error, -0.225 ± 0.46
- FKYTHIETVIQVLYFRTWSY — within error, -0.485 ± 0.33
- FLCPRSCHGPNTFDFIMWSF — within error, 0.198 ± 0.66
- FLCSIISYS — higher, 5.572 ± 0.048
- FLEKSFLCSWSLVRTEGEWA — within error, -0.333 ± 0.57
- FLGMIFTELSINMKVSRRP — within error, -1.12 ± 1.2
- FLHFMVY — within error, 0.027 ± 0.64
- FLIIIRPISRRTCRVCFKQT — within error, -0.246 ± 0.44
- FLLIVVCWDLRLSSFHKLYF — within error, 0.657 ± 0.73
- FLMWMWLVSNRKHWLFTDKV — within error, -2.54 ± 2.7
- FLNNLAGWGYPCFTGVYANA — within error, -0.195 ± 0.39
- FLNRYICKFDKVSQHGVRLW — within error, 0.261 ± 0.84
- FLQRIKNHAVSAGWIYSLSK — within error, 0.106 ± 0.43
- FLRELMRCIGASSTFLGVEK — within error, -0.204 ± 0.29
- FLRFIRSVNFYVKEYAESLL — within error, -0.691 ± 0.52
- FLSLFVSVV — within error, -0.18 ± 0.97
- FLTLCVLNRLWH — higher, 4.85 ± 0.11
- FLTSECSTSSLHS — within error, 0.56 ± 0.85
- FLVCLFINVVTPRTYHLWVY — within error, -0.174 ± 0.49
- FLVKSIRTVGL — within error, 0.605 ± 0.36
- FLVPEVEKIFNIRVLEVRLM — within error, -0.834 ± 0.6
- FLVQNRRISEVIELWALLS — within error, -1.19 ± 2.7
- FLYVVARY — within error, 0.19 ± 0.71
- FLYWLVDKLG — within error, 0.37 ± 0.51
- FMCIPV — within error, 0.189 ± 0.55
- FMFYTYHVNSYFSILCSVSN — within error, 0.655 ± 0.46
- FMGVINGEITLVNSFVTYMR — higher, 7.768 ± 0.051
- FMQLTYRMCGSPSIRVNGVL — higher, 0.685 ± 0.34
- FMRDCSYI — within error, 0.687 ± 0.79
- FMRSATCKVWNL — within error, -0.079 ± 0.51
- FMSYLNYRQCPPVLDEEVVP — within error, 0.241 ± 1
- FNCLMALIFPDVLDCSYSVD — higher, 1.26 ± 0.9
- FNDFSLSYARFCINSMNRYP — higher, 0.968 ± 0.13
- FNFNFRRFYHVRGFDSRSHL — within error, 0.473 ± 0.58
- FNIIASPSWVSVRNHGNLWV — higher, 4.91 ± 0.062
- FNITYCFRSFSTSVDNGF — within error, 0.436 ± 0.55
- FNKTSMVSGNQLRVLVLVNI — higher, 1.08 ± 0.59
- FNLRTIARDL — lower, -1.68 ± 0.97
- FNLSVKAY — within error, -0.581 ± 1.6
- FNNPKCHSWLDRMVWLMWLA — within error, 0.343 ± 0.61
- FNSRGSVSNL — within error, 0.821 ± 1.1
- FNSRTAGCRLSTQMFSRKQT — within error, 0.402 ± 0.92
- FNWMRP — higher, 0.706 ± 0.31
- FNYLICAVDSRTLNSW — higher, 4.7 ± 0.05
- FPDMCILRILYVKVLV — within error, -1.52 ± 1.6
- FPYILMKRAKQYALGPRHLL — within error, -0.435 ± 0.32
- FQNELCKTDIWFRVREWESE — within error, 0.196 ± 1.2
- FRCLRTRSCLQWAQGLGAEA — within error, 0.596 ± 0.47
- FRDSTET — within error, 0.495 ± 1.4
- FRGFR — within error, -0.235 ± 0.4
- FRLLGLTR — within error, 0.087 ± 0.62
- FRLMPEYVATYMLSLRMCQC — within error, -0.565 ± 1.2
- FRMNRKVRC — within error, 0.082 ± 0.29
- FRSAKAIMLEVN — within error, 0.048 ± 0.41
- FRSFNGTCSGVQWSVFVIWV — within error, -0.18 ± 0.77
- FRSGYRLACSAMSIAFCIYE — within error, 0.341 ± 0.48
- FRSLMLLDFTYHVVSGLRYK — within error, -0.609 ± 1.9
- FRWTLTSLRSVNDFSG — higher, 0.948 ± 0.65
- FSCKSAPQFCRWG — higher, 0.718 ± 0.42
- FSFGIVSVMGYVLYRRRPWA — higher, 1.08 ± 0.63
- FSFLHLVGRWGLIVSNCSDV — within error, -0.355 ± 0.64
- FSKAMNFRDRTSSQSQ — within error, -0.581 ± 1.2
- FSLFDGMVLVNS — within error, -0.281 ± 0.39
- FSSWQGMGKQYWPERIRCAD — within error, 0.425 ± 0.46
- FSWADLDRYCISLQNQGPLA — within error, 0.66 ± 0.42
- FSYTDNSTRFVTFQLRNIPA — higher, 0.598 ± 0.33
- FTAVK — within error, -0.188 ± 0.46
- FTCFAK — higher, 1.14 ± 0.52
- FTCKWRVGFWTPVSDPV — lower, -1.27 ± 0.7

For ENKHVGICSGVQFVAFETCY, the amyloid nucleation score was “inactive”.
For ESEWNIMPFDNLYLGRETVW, the amyloid nucleation score was “inactive”.
For ESLSCKFLCVYCCL, the amyloid nucleation score was “inactive”.
In the case of FAYFSVNCL, the amyloid nucleation score is reported as “inactive”.
With FCFMWGYMVRVIV the amyloid nucleation score was “inactive”.
For FFTLHAFQ, the amyloid nucleation score was “inactive”.
With FHVIGSARTLVVAQYLK the amyloid nucleation score was “inactive”.
For FILIYTAPFIGGLVGLGDGH, the amyloid nucleation score was “inactive”.
In the case of FLLESL, the amyloid nucleation score is reported as “inactive”.
For FRLTLGIVVLLVGK, the amyloid nucleation score was “inactive”.
